Source: article PMC3149608, “A Novel Acyl-CoA Beta-Transaminase Characterized from a Metagenome” (PLoS ONE, 2011)
Values belong to the molecule of their own block, whether it stands above or below them.

What was measured:
[1] = biological target: T1, Kat (HemL-like), 3-aminobutyryl-CoA aminotransferase (Cloacimonas acidaminivorans (SeqCode), UniProt B0VH76); test: spectrophotometric, acetoacetyl-CoA formation at […] nm; format: biochemical; settings: 25 µM (3S)-3-aminobutyryl-CoA; 50 mM Tris/HCl pH 8.1, 5 mM MgCl2
T1 construct: full-length CDS in pEXP-5-NT/TOPO, E. coli; by primers starts (M)AEKLKLA, ends EVKKML
T1 sequence (B0VH76 1-414): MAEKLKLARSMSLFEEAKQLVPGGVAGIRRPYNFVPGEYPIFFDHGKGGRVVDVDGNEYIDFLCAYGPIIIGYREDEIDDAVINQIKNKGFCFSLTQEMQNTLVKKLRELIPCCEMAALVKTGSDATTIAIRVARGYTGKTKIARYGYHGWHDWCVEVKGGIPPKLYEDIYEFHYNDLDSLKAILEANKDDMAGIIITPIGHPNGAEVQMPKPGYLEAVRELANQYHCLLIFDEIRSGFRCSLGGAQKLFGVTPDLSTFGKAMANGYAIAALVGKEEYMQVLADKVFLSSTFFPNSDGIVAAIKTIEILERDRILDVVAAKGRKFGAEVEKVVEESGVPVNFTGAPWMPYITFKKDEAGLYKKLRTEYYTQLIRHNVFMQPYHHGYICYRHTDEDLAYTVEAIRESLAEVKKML

[2] = biological target: T2, AtoA/AtoD complex (butyrate-acetoacetate CoA transferase) (Cloacimonas acidaminivorans (SeqCode), UniProt B0VIH1+B0VIH2); test: CoA transferase assay, acetoacetyl-CoA formation at […] nm; format: biochemical; settings: 4 mM MgCl2, 50 mM Tris/HCl pH 8.1
T2 construct: each subunit in pEXP-5-NT/TOPO, E. coli, mixed equimolar; by primers AtoA (M)ALDKRAM...ERVNTF, AtoD (M)VQIISA...VLAKEN
T2 sequence (B0VIH1 1-218): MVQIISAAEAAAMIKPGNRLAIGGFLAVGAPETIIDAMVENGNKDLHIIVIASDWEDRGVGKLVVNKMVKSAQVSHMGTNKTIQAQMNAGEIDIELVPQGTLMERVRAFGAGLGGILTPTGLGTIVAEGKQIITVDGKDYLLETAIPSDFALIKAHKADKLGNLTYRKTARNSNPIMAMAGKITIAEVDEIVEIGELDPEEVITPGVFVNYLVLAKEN
T2 sequence (B0VIH2 1-217): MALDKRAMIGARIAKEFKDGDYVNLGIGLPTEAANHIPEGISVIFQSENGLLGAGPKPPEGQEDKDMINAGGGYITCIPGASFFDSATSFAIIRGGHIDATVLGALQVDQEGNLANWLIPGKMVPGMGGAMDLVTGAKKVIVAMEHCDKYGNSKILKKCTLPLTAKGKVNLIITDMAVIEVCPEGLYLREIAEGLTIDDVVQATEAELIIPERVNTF

[3] = substrate: C[C@H](N)CC(=O)SCCNC(=O)CCNC(=O)[C@H](O)C(C)(C)COP(=O)(O)OP(=O)(O)OC[C@H]1O[C@@H](n2cnc3c(N)ncnc32)[C@H](O)[C@@H]1OP(=O)(O)O; test: purified protein; format: biochemical, Cloacimonas acidaminivorans (SeqCode); settings: 50 mM α-ketoglutarate, 50 mM Tris/HCl pH 8.1, 5 mM MgCl2
[4] = substrate: O=C(O)CCC(=O)C(=O)O; test: purified protein; format: biochemical, Cloacimonas acidaminivorans (SeqCode); settings: 25 µM (3S)-3-aminobutyryl-CoA, 50 mM Tris/HCl pH 8.1, 5 mM MgCl2

K m (M) [1]: 20.1±1.3 10^−3 M
Molecule: CC(=O)C(=O)O [pyruvate]

Molecule: CC(=O)SCCNC(=O)CCNC(=O)[C@H](O)C(C)(C)COP(=O)(O)OP(=O)(O)OC[C@H]1O[C@@H](n2cnc3c(N)ncnc32)[C@H](O)[C@@H]1OP(=O)(O)O [acetyl-CoA]
CoA transferase assay, acetoacetyl-CoA formation at 310 nm ([2]; 10 mM acetoacetate): formation in vitro of acetoacetyl-CoA and acetate from acetoacetate and acetyl-CoA

Molecule: CC(=O)CC(=O)O [acetoacetate]
CoA transferase assay, acetoacetyl-CoA formation at 310 nm ([2]; acetyl-CoA as CoA donor): formation in vitro of acetoacetyl-CoA and acetate from acetoacetate and acetyl-CoA

B1: Kat (HemL-like), 3-aminobutyryl-CoA aminotransferase (Candidatus Cloacimonas acidaminivorans str. Evry) (protein)
chain: MAEKLKLARSMSLFEEAKQLVPGGVAGIRRPYNFVPGEYPIFFDHGKGGRVVDVDGNEYIDFLCAYGPIIIGYREDEIDDAVINQIKNKGFCFSLTQEMQNTLVKKLRELIPCCEMAALVKTGSDATTIAIRVARGYTGKTKIARYGYHGWHDWCVEVKGGIPPKLYEDIYEFHYNDLDSLKAILEANKDDMAGIIITPIGHPNGAEVQMPKPGYLEAVRELANQYHCLLIFDEIRSGFRCSLGGAQKLFGVTPDLSTFGKAMANGYAIAALVGKEEYMQVLADKVFLSSTFFPNSDGIVAAIKTIEILERDRILDVVAAKGRKFGAEVEKVVEESGVPVNFTGAPWMPYITFKKDEAGLYKKLRTEYYTQLIRHNVFMQPYHHGYICYRHTDEDLAYTVEAIRESLAEVKKML
notes: full-length CDS in pEXP-5-NT/TOPO, E. coli; by primers starts (M)AEKLKLA, ends EVKKML
kcat [3]: 1.8 ± 0.2 s⁻¹
kcat/Km [3]: 420000 M⁻¹ s⁻¹
kcat [4]: 1.8 ± 0.1 s⁻¹
kcat/Km [4]: 620 M⁻¹ s⁻¹
